Source: patent US20220196651A1 (ALX ONCOLOGY, published 2022)

Target: Drug A
Assay: cell-based or functional assay

B1: anti-SIRP multimer G (antibody, mouse IgG2a)
heavy: DVQLVESGGGVVRPGESLRLSCAASGFTFSSNAMSWVRQAPGKGLEWLAGISAGGSDTYYPASVKGRFTISRDNSKNTLYLQMNTLTAEDTAVYYCARETWNHLFDYWGLGTLVTVSSAKTTAPSVYPLAPVCGDTTGSSVTLGCLVKGYFPEPVTLTWNSGSLSSGVHTFPAVLQSDLYTLSSSVTVTSSTWPSQSITCNVAHPASSTKVDKKIEPRGPTIKPCPPCKCPAPNLLGGPSVFIFPPKIKDVLMISLSPIVTCVVVDVSEDDPDVQISWFVNNVEVHTAQTQTHREDYNSTLRVVSALPIQHQDWMSGKEFKCKVNNKDLPAPIERTISKPKGSVRAPQVYVLPPPEEEMTKKQVTLTCMVTDFMPEDIYVEWTNNGKTELNYKNTEPVLDSDGSYFMYSKLRVEKKNWVERNSYSCSVVHEGLHNHHTTKSFSRTPG
light: ALTQPASVSANPGETVKIACSGGDYYSYYYGWYQQKAPGSALVTVIYSDDKRPSDIPSRFSGSASGSTATLTITGVRAEDEAVYYCGGYDYSTYANAFGAGTTLTVLGQPKSSPSVTLFPPSSEELETNKATLVCTITDFYPGVVTVDWKVDGTPVTQGMETTQPSKQSNNKYMASSYLTLTARAWERHSSYSCQVTHEGHTVEKSLSRADCS
  molar excess of Multimer G that mitigated interference, gel card, Drug A 1000 µg/mL: 4 fold molar excess relative to Drug A
  molar excess of Multimer G that mitigated interference, gel card, Drug A 2000 µg/mL: 6 fold molar excess relative to Drug A
  molar excess of Multimer G that mitigated interference, gel card, Drug A between 0.1 and 100 (printed ng/mL): 3 fold molar excess relative to Drug A

B2: anti-SIRP multimer E (antibody, mouse IgG1, N297A)
heavy: DVQLVESGGGVVRPGESLRLSCAASGFTFSSNAMSWVRQAPGKGLEWLAGISAGGSDTYYPASVKGRFTISRDNSKNTLYLQMNTLTAEDTAVYYCARETWNHLFDYWGLGTLVTVSSAKTTPPSVYPLAPGSAAQTNSMVTLGCLVKGYFPEPVTVTWNSGSLSSGVHTFPAVLQSDLYTLSSSVTVPSSTWPSETVTCNVAHPASSTKVDKKIVPRDCGCKPCICTVPEVSSVFIFPPKPKDVLTITLTPKVTCVVVDISKDDPEVQFSWFVDDVEVHTAQTQPREEQFASTFRSVSELPIMHQDWLNGKEFKCRVNSAAFPAPIEKTISKTKGRPKAPQVYTIPPPKEQMAKDKVSLTCMITDFFPEDITVEWQWNGQPAENYKNTQPIMDTDGSYFIYSKLNVQKSNWEAGNTFTCSVLHEGLHNHHTEKSLSHSPG
light: ALTQPASVSANPGETVKIACSGGDYYSYYYGWYQQKAPGSALVTVIYSDDKRPSDIPSRFSGSASGSTATLTITGVRAEDEAVYYCGGYDYSTYANAFGAGTTLTVLGQPKSSPSVTLFPPSSEELETNKATLVCTITDFYPGVVTVDWKVDGTPVTQGMETTQPSKQSNNKYMASSYLTLTARAWERHSSYSCQVTHEGHTVEKSLSRADCS
  molar ratio to Drug A at which interference was mitigated, SPRCA: ≥ 1.25 x molar ratio to Drug A

B3: anti-SIRP multimer F (antibody, mouse IgG1, N297A, V domains shown)
VH: DVQLVESGGGVVRPGESLRLSCAASGFTFSSYAMSWVRQAPGKGLEWLAGISAGGSDTYYIDSVKGRFTISRDNPKNSLYLQMSSLTAEDTAVYYCARETWNHLFDYWGLGTLVTVSS
VL: ALTQPASVSANPGETVKITCSGGDYYSTYYAWYQQKSPGSAPVTVIHSDDKRPSDIPSRFSGSASGSAATLIITGVRVEDEAVYYCGGYDGRTYINTFGAGTTLTVLG
  molar ratio to Drug A at which interference was mitigated, SPRCA: ≥ 1.25 x molar ratio to Drug A

B4: anti-SIRP multimer D (antibody, V domains shown)
VH: DVQLVESGGGVVRPGESLRLSCAASGFTFSSNAMSWVRQAPGKGLEWLAGISAGGSDTYYPASVKGRFTISRDNSKNTLYLQMNTLTAEDTAVYYCARETWNHLFDYWGLGTLVTVSS
VL: ALTQPASVSANPGETVKIACSGGDYYSYYYGWYQQKAPGSALVTVIYSDDKRPSDIPSRFSGSASGSTATLTITGVRAEDEAVYYCGGYDYSTYANAFGAGTTLTVL
  molar ratio to Drug A (130 nM) at which no agglutination was observed, IAT tube assay: 2.5 x molar ratio to Drug A
  molar ratio to Drug A (130 nM) at which no interference was observed, SPRCA: ≥ 0.63 x molar ratio to Drug A
